Each block holds one binder with its values, some of them ahead of it.
Columns and labels:
CUL3^Δ1–13-RBX1 [1] = biological target: T1, CUL3^Δ1–13-RBX1 (human, UniProt Q13618 14-768; P62877 1-108); assay: ITC; ITC200; CUL3-RBX1 (120 μM) in the syringe titrated into KLHL22^1–178 (10 μM) in the cell, 25 °C, one-site model; repeated with KLHL22^1–178 (120 μM) into CUL3-RBX1 (12 μM); settings: both partners purified
T1 construct: Cullin-3 (CUL3), human, residues 1-13 deleted (partial deletion of the NA motif); RBX1, human, without a tag; source: purified; host stated only for wild-type CUL3-RBX1 (SF9); copies: 1 + 1

CUL3^Δ1–24-RBX1 [2] = biological target: T2, CUL3^Δ1–24-RBX1 (human, UniProt Q13618 25-768; P62877 1-108); assay: as above; settings: both partners purified
T2 construct: Cullin-3 (CUL3), human, residues 1-24 (the whole NA motif) deleted; RBX1, human, without a tag; source: purified; host stated only for wild-type CUL3-RBX1 (SF9); copies: 1 + 1

CUL3^WT-RBX1 [3] = biological target: T3, CUL3^WT-RBX1 (human, UniProt Q13618 1-768; P62877 1-108); assay: as above; settings: both partners purified
T3 construct: Cullin-3 (CUL3), human, full length; also called CUL3-RBX1; (CUL3-His6)-RBX1; source: SF9 insect cells, co-expressed from pFastbac-dual, purified (Ni-IDA, SEC); copies: 1 + 1

[4] = biological target: the molecule itself; assay: SEC-MALS; WTC-015S5 column, low salt buffer; complexes at 2 mg/ml, KLHL22^1–178 and KLHL12^1–161 alone at 3 mg/ml
CUL3^Δ1–13-RBX1 [5] = biological target: T1, CUL3^Δ1–13-RBX1; assay: SEC; analytical SEC, Superdex 200 Increase 10/300 GL, 20 mM Tris-HCl pH 8.0, 150 mM NaCl, 1% glycerol, 1 mM TCEP; purified proteins mixed 1:1 (also 2:1 and 4:1 CUL3-RBX1 to BTB protein), 10 min on ice; settings: both partners purified
CUL3^Δ1–24-RBX1 [6] = biological target: T2, CUL3^Δ1–24-RBX1; assay: as above; settings: both partners purified
CUL3^WT-RBX1 [7] = biological target: T3, CUL3^WT-RBX1; assay: as above; settings: both partners purified
[8] = biological target: the molecule itself; assay: cryo-EM structure; full-length CUL3-RBX1-KLHL22 co-expressed in SF9, purified, GraFix (glutaraldehyde gradient); C2 symmetry, 3.8 Å overall, 3.3 Å for the dimer assembly region

T3 sequence (Q13618 whole entry, chain 1 of 2): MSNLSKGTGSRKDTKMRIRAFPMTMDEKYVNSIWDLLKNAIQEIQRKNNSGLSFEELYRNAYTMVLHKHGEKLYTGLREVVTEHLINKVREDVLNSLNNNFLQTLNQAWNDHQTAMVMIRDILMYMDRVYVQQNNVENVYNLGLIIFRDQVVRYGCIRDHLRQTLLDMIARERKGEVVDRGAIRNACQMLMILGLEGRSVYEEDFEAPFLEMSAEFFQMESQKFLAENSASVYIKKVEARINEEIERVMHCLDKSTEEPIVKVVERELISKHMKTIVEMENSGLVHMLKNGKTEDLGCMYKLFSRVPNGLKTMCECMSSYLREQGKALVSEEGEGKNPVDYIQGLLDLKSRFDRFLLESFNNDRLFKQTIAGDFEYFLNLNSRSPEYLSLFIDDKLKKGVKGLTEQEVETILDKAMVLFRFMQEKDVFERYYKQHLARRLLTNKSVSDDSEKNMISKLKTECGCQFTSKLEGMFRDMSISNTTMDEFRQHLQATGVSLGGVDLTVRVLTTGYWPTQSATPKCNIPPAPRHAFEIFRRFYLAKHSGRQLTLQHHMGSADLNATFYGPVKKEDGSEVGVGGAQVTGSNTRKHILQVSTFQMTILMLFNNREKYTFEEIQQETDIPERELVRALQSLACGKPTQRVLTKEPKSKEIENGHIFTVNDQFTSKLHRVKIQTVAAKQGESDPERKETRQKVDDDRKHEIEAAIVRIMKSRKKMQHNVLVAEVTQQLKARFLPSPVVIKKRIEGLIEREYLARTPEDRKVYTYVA
T3 sequence (P62877 whole entry, chain 2 of 2): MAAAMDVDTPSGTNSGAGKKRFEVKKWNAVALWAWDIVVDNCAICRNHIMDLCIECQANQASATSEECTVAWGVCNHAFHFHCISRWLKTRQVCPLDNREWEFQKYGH
T1 sequence (Q13618 14-768, stated change not applied, chain 1 of 2): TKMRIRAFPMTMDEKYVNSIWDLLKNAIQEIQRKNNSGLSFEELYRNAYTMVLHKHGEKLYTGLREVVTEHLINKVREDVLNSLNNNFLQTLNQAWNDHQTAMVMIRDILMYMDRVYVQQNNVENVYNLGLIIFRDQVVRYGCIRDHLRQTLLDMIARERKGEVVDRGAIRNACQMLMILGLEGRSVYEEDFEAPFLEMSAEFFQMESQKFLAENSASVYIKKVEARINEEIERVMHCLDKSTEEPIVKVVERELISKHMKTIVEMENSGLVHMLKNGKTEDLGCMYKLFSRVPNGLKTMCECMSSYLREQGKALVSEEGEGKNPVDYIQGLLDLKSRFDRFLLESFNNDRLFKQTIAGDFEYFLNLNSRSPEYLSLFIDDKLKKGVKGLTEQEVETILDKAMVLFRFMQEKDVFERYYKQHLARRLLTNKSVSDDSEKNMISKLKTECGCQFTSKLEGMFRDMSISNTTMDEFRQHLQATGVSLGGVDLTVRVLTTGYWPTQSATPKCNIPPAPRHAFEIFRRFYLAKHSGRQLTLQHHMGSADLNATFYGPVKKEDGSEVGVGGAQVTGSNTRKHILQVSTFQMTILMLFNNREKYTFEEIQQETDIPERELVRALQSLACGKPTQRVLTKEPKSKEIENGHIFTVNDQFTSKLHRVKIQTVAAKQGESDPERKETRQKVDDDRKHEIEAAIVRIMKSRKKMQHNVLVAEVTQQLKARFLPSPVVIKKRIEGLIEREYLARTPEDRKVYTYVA
T1 sequence (P62877 whole entry, stated change not applied, chain 2 of 2, the tested form may be a part): as the sequence (P62877 whole entry, chain 2 of 2) above
T2 sequence (Q13618 25-768, stated change not applied, chain 1 of 2): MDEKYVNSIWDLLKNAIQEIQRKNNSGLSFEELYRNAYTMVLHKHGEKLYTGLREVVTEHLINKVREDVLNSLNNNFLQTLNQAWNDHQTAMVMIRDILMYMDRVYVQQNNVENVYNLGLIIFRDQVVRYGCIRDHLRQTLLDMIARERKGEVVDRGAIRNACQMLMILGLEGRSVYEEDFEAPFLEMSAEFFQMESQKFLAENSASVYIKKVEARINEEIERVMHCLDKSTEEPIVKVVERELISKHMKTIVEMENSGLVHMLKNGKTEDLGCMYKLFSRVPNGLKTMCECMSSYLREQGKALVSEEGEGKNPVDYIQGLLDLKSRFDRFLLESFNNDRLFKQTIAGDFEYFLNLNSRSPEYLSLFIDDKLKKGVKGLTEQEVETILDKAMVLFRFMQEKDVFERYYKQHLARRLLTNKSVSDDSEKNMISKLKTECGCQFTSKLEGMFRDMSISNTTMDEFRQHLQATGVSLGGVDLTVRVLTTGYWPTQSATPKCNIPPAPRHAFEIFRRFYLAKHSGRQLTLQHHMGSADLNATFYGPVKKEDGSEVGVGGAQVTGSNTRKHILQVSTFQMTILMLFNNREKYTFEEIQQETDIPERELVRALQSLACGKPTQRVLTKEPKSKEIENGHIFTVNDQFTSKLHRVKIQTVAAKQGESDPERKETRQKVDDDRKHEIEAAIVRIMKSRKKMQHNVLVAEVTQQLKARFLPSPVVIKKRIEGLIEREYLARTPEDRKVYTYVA
T2 sequence (P62877 whole entry, stated change not applied, chain 2 of 2, the tested form may be a part): as the sequence (P62877 whole entry, chain 2 of 2) above

Kd (CUL3^Δ1–13-RBX1 [1]): ~87 nM
Kd (CUL3^Δ1–24-RBX1 [2]): ~383 nM
Kd (CUL3^WT-RBX1 [3]): ~27 nM
B1: KLHL22^1–178 (domain or fragment, human, UniProt Q53GT1 1-178, looked up)
chain: MAEEQEFTQLCKLPAQPSHPHCVNNTYRSAQHSQALLRGLLALRDSGILFDVVLVVEGRHIEAHRILLAASCDYFRGMFAGGLKEMEQEEVLIHGVSYNAMCQILHFIYTSELELSLSNVQETLVAACQLQIPEIIHFCCDFLMSWVDEENILDVYRLAELFDLSRLTEQLDTYILKN
notes: TEV site ENLYFQG: a residue of the site may be left at the N-terminus after cleavage; source: E. coli BL21(DE3), purified (Ni-IDA, SEC), His-MBP tag removed with TEV protease; not shown: His6, N-terminal, cleaved; MBP, N-terminal, cleaved
stoichiometry N [4]: 2

binding result (CUL3^Δ1–13-RBX1 [5]): binds
binding result (CUL3^Δ1–24-RBX1 [6]): binds
binding result (CUL3^WT-RBX1 [7]): binds
B2: KLHL12^1–161 (domain or fragment, human, UniProt Q53G59 1-161, looked up)
chain: MGGIMAPKDIMTNTHAKSILNSMNSLRKSNTLCDVTLRVEQKDFPAHRIVLAACSDYFCAMFTSELSEKGKPYVDIQGLTASTMEILLDFVYTETVHVTVENVQELLPAACLLQLKGVKQACCEFLESQLDPSNCLGIRDFAETHNCVDLMQAAEVFSQKH
notes: as for B1
stoichiometry N [4]: 2

B3: KLHL22 (full length, N-terminal His6) (natural protein, human, UniProt Q53GT1 1-634, looked up)
chain: MAEEQEFTQLCKLPAQPSHPHCVNNTYRSAQHSQALLRGLLALRDSGILFDVVLVVEGRHIEAHRILLAASCDYFRGMFAGGLKEMEQEEVLIHGVSYNAMCQILHFIYTSELELSLSNVQETLVAACQLQIPEIIHFCCDFLMSWVDEENILDVYRLAELFDLSRLTEQLDTYILKNFVAFSRTDKYRQLPLEKVYSLLSSNRLEVSCETEVYEGALLYHYSLEQVQADQISLHEPPKLLETVRFPLMEAEVLQRLHDKLDPSPLRDTVASALMYHRNESLQPSLQSPQTELRSDFQCVVGFGGIHSTPSTVLSDQAKYLNPLLGEWKHFTASLAPRMSNQGIAVLNNFVYLIGGDNNVQGFRAESRCWRYDPRHNRWFQIQSLQQEHADLSVCVVGRYIYAVAGRDYHNDLNAVERYDPATNSWAYVAPLKREVYAHAGATLEGKMYITCGRRGEDYLKETHCYDPGSNTWHTLADGPVRRAWHGMATLLNKLYVIGGSNNDAGYRRDVHQVACYSCTSGQWSSVCPLPAGHGEPGIAVLDNRIYVLGGRSHNRGSRTGYVHIYDVEKDCWEEGPQLDNSISGLAACVLTLPRSLLLEPPRGTPDRSQADPDFASEVMSVSDWEEFDNSSED
notes: Kelch-like protein 22 (KLHL22), human, full length; Dimer in the cryo-EM structure of CRL3^KLHL22; also called His6-KLHL22
binding result [8]: binds

— publication PMC11074293 (Nature Communications, 2024)
